Laboratory results as given in patent publication US20210024646A1 (published 2021).

T1: extracellular domain of human CD73 protein (CD73-ECD), C-terminus polyhistidine-tagged (UniProt P21589 27-547)
T1 chain: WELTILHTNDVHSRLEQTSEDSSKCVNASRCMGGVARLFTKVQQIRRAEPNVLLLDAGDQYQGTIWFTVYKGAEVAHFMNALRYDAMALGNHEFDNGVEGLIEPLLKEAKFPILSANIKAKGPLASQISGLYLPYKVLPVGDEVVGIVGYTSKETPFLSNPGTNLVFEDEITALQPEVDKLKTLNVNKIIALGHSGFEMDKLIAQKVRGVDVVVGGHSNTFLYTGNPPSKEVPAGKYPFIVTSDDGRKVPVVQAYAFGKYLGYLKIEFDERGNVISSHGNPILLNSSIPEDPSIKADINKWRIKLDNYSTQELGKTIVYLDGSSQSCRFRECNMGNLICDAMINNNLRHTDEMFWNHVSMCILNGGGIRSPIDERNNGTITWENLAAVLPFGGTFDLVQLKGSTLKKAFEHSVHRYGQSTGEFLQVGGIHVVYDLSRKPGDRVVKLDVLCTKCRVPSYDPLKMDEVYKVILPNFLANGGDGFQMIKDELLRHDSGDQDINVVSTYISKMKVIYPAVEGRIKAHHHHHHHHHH

T2: Carbon-terminal polyhistidine-labeled recombinant cynomolgus monkey CD73 enzyme (cynomolgus monkey, UniProt A0A2K5V5U7 1-547)
T2 chain: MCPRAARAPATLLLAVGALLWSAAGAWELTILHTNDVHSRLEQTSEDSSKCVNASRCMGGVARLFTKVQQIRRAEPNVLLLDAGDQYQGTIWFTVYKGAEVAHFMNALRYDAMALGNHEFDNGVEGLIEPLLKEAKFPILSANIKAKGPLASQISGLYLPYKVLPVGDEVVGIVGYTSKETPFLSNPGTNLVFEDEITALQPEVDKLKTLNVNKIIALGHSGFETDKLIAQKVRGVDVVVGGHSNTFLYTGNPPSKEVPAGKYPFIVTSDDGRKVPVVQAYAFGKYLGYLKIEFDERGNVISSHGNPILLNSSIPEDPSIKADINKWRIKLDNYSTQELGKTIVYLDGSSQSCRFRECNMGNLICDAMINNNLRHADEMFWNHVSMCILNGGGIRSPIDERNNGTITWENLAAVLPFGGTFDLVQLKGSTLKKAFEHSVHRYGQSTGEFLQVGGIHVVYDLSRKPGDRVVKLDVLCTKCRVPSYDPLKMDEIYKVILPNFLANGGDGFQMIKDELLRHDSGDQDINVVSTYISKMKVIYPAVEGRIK

T3: CD73 on the surface of human tumor cells (human, UniProt P21589 27-549)
T3 chain: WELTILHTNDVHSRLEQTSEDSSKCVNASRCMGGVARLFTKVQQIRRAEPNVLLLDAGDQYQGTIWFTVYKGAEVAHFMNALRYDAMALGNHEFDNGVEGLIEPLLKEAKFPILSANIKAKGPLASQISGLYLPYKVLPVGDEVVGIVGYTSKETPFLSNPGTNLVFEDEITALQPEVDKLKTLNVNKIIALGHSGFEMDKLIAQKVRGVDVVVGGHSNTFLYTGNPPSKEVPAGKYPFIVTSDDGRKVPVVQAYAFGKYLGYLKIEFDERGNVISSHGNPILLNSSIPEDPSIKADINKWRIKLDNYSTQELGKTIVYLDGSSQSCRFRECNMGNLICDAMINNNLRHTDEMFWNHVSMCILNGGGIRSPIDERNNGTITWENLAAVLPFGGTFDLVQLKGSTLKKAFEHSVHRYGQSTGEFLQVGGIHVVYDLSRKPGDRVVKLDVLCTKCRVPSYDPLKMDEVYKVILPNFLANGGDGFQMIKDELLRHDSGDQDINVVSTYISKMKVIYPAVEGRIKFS


Key:
[1] = biological target: T1, extracellular domain of human CD73 …; experiment: enzyme inhibition; right table
[2] = biological target: T1, extracellular domain of human CD73 …; experiment: enzyme inhibition; left table
[3] = biological target: T2, Carbon-terminal polyhistidine-labeled …; experiment: enzyme inhibition; left table
[4] = biological target: T2, Carbon-terminal polyhistidine-labeled …; experiment: enzyme inhibition; right table
[5] = biological target: T1, extracellular domain of human CD73 …; experiment: ELISA
[6] = biological target: T3, CD73 on the surface of human tumor cells; experiment: FACS; NCI-H1299 cells, right table
[7] = biological target: T3, CD73 on the surface of human tumor cells; experiment: FACS; MDA-MB-231 cells, right table
[8] = biological target: T3, CD73 on the surface of human tumor cells; experiment: inhibition of cell-surface CD73 enzyme activity; right panel
[9] = biological target: T3, CD73 on the surface of human tumor cells; experiment: inhibition of cell-surface CD73 enzyme activity; left panel
[10] = biological target: T3, CD73 on the surface of human tumor cells; experiment: FACS; MDA-MB-231 cells, left table
[11] = biological target: T3, CD73 on the surface of human tumor cells; experiment: FACS; NCI-H1299 cells, left table

| IC50 [1] | IC50 [2] | IC50 [3] | IC50 [4] | EC50 [5] | EC50 [6] | EC50 [7] | IC50 [8] | IC50 [9] | EC50 [10] | EC50 [11] | Binder |
| --- | --- | --- | --- | --- | --- | --- | --- | --- | --- | --- | --- |
|  | 0.042 nM | 0.043 nM |  | 0.131 nM |  |  |  | 0.478 nM | 0.666 nM | 0.874 nM | Hu002c-2 (antibody, V domains shown) VH: QVQLVQSGAEVKKPGASVKVSCKASGYTLTSYWMHWVRQAPGQGLEWMGEINPSQGRSNYNEKFKSRVTMTRDTSTSTVYMELSSLRSEDTAVYYCARRGVSGNYFDYWGQGTLVTVSS VL: DIQMTQSPSSLSASVGDRVTITCKASQDINTYLSWFQQKPGKAPKSLIYRSNILVSGVPSRFSGSGSGQDYTLTISSLQPEDFATYYCLQYDEFPYTFGQGTKLEIK |
|  | 0.025 nM | 0.041 nM |  | 0.107 nM |  |  |  | 0.223 nM | 0.662 nM | 0.91 nM | Hu002c-8 (antibody, V domains shown) VH: QVQLVQSGAEVKKPGASVKVSCKASGYTLTSYWMHWVRQAPGQGLEWIGEINPSQGRSNYNEKFKSRVTLTVDRSTSTVYMELSSLRSEDTAVYYCARRGVSGNYFDYWGQGTLVTVSS VL: DIQMTQSPSSLSASVGDRVTITCKASQDINTYLSWFQQKPGKSPKSLIYRSNILVSGVPSRFSGSGSGQDYTLTISSLQPEDFAIYYCLQYDEFPYTFGGGTKLEI |
|  | 0.028 nM | 0.052 nM |  | 0.098 nM |  |  |  | 0.279 nM | 0.659 nM | 0.829 nM | Hu002c-7 (antibody, V domains shown) VH: QVQLVQSGAEVKKPGASVKVSCKASGYTLTSYWMHWVRQAPGQGLEWIGEINPSQGRSNYNEKFKSRVTLTVDRSTSTVYMELSSLRSEDTAVYYCARRGVSGNYFDYWGQGTLVTVSS VL: DIQMTQSPSSLSASVGDRVTITCKASQDINTYLSWFQQKPGKSPKSLIYRSNILVSGVPSRFSGSGSGQDYTLTISSLQPEDFATYYCLQYDEFPYTFGGGTKLEIK |
| 0.075 nM |  |  | 0.074 nM | 0.104 nM | 0.804 nM | 0.717 nM | 0.591 nM |  |  |  | Hu002c-15 (antibody, V domains shown) VH: QVQLVQSGAEVKKPGASVKVSCKASGYTLTSYWMHWVKKAPGQGLEWIGEINPSQGRSNYNEKFKSKVTLTVDRSTSTVYMELSSLRSEDTAVYYCARRGVSGNYFDYWGQGTLVTVSS VL: DIQMTQSPSSLSASVGDRVTITCKASQDINTYLSWFQQKPGKSPKSLIYRSNILVSGVPSRFSGSGSGQDYTLTISSLQPEDFATYYCLQYDEFPYTFGGGTKLEIK |

The next lines start with the binder.

| Binder | IC50 [1] | IC50 [2] | IC50 [3] | IC50 [4] | EC50 [5] | EC50 [6] | EC50 [7] | IC50 [8] | IC50 [9] | EC50 [10] | EC50 [11] |
| --- | --- | --- | --- | --- | --- | --- | --- | --- | --- | --- | --- |
| Hu001c-15 (antibody, V domains shown) VH: QVQLVQSGAEVKKPGASVKVSCKTSGYTFTNYYIYWVRQAPGQRLEWMGWIYPGNLNIKYNEKFKGRVTITADTSASTAYMELSSLRSEDTAVYYCARDDNYAWFAYWGQGTLVTVSS VL: DIQMTQSPSSLSASVGDRVTITCKASQDVSTAVAWYQQKPGKSPKLLIYWTNTRHTGVPSRFSGSGSGTDHTLTISSLQPEDFATYYCQQHYSTPFTFGQGTKLEIK | 0.02 nM | 0.04 nM | 0.1 nM | 0.05 nM | 0.115 nM |  |  |  |  |  |  |
| Hu002c-16 (antibody, V domains shown) VH: QVQLVQSGAEVKKPGASVKVSCKASGYTLTSYWMHWVKKAPGQGLEWIGEINPSQGRSNYNEKFKSKVTLTVDRSTSTVYMELSSLRSEDTAVYYCARRGVSGNYFDYWGQGTLVTVSS VL: DIQMTQSPSSLSASVGDRVTITCKASQDINTYLSWFQQKPGKSPKSLIYRSNILVSGVPSRFSGSGSGQDYTLTISSLQPEDFAIYYCLQYDEFPYTFGGGTKLEI | 0.068 nM |  |  | 0.072 nM | 0.099 nM | 0.86 nM | 0.632 nM | 0.327 nM |  |  |  |
| Hu002c-6 (antibody, V domains shown) VH: QVQLVQSGAEVKKPGASVKVSCKASGYTLTSYWMHWVRQAPGQGLEWIGEINPSQGRSNYNEKFKSRVTLTVDRSTSTVYMELSSLRSEDTAVYYCARRGVSGNYFDYWGQGTLVTVSS VL: DIQMTQSPSSLSASVGDRVTITCKASQDINTYLSWFQQKPGKAPKSLIYRSNILVSGVPSRFSGSGSGQDYTLTISSLQPEDFATYYCLQYDEFPYTFGQGTKLEIK |  | 0.064 nM | 0.055 nM |  | 0.091 nM |  |  |  | 0.41 nM | 0.69 nM | 0.836 nM |
| Hu002c-10 (antibody, V domains shown) VH: QVQLVQSGAEVKKPGASVKVSCKASGYTLTSYWMHWVRQAPGQGLEWIGEINPSQGRSNYNEKFKSKVTLTVDRSTSTVYMELSSLRSEDTAVYYCARRGVSGNYFDYWGQGTLVTVSS VL: DIQMTQSPSSLSASVGDRVTITCKASQDINTYLSWFQQKPGKAPKSLIYRSNILVSGVPSRFSGSGSGQDYTLTISSLQPEDFATYYCLQYDEFPYTFGQGTKLEIK | 0.059 nM |  |  | 0.059 nM | 0.093 nM | 0.758 nM | 0.702 nM | 0.441 nM |  |  |  |
| Hu002c-4 (antibody, V domains shown) VH: QVQLVQSGAEVKKPGASVKVSCKASGYTLTSYWMHWVRQAPGQGLEWMGEINPSQGRSNYNEKFKSRVTMTRDTSTSTVYMELSSLRSEDTAVYYCARRGVSGNYFDYWGQGTLVTVSS VL: DIQMTQSPSSLSASVGDRVTITCKASQDINTYLSWFQQKPGKSPKSLIYRSNILVSGVPSRFSGSGSGQDYTLTISSLQPEDFAIYYCLQYDEFPYTFGGGTKLEI |  | 0.049 nM | 0.047 nM |  | 0.106 nM |  |  |  | 0.33 nM | 0.696 nM | 0.873 nM |
| Hu002c-3 (antibody, V domains shown) VH: QVQLVQSGAEVKKPGASVKVSCKASGYTLTSYWMHWVRQAPGQGLEWMGEINPSQGRSNYNEKFKSRVTMTRDTSTSTVYMELSSLRSEDTAVYYCARRGVSGNYFDYWGQGTLVTVSS VL: DIQMTQSPSSLSASVGDRVTITCKASQDINTYLSWFQQKPGKSPKSLIYRSNILVSGVPSRFSGSGSGQDYTLTISSLQPEDFATYYCLQYDEFPYTFGGGTKLEIK |  | 0.036 nM | 0.046 nM |  | 0.089 nM |  |  |  | 0.535 nM | 0.743 nM | 0.902 nM |
